Laboratory results: US20130123462A1 (INDIANA UNIVERSITY RESEARCH AND TECHNOLOGY, published 2013)
Like-named read-outs stand apart in the source and are kept apart here. Bridges are numbered along the chain shown (N, C = ends). Where no end group is shown, it is not given here. [ ]: non-standard residue; d: D form. PhLac = O=C(O)[C@@H](O)Cc1ccccc1

Tests used:
Assay in all cases: cell-based or functional assay
GLP-1 receptor [1] = target: T1, GLP-1 receptor (UniProt P43220 24-463, limits assumed)
glucagon receptor [2] = target: T2, glucagon receptor (UniProt P47871 26-477, limits assumed)
T2 sequence (P47871 26-477 limits assumed): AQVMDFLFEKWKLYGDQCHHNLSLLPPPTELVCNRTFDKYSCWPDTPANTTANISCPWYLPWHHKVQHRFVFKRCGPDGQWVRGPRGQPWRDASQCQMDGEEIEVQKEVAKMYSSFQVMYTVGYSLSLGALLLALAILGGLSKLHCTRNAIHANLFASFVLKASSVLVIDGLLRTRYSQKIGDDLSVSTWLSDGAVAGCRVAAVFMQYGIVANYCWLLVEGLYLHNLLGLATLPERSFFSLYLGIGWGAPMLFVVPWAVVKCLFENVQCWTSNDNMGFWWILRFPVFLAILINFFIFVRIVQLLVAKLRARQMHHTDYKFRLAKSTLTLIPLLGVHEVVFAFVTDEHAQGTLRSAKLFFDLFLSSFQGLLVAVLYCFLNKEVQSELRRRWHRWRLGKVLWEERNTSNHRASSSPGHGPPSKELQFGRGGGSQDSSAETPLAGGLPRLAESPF

GLP-1 receptor [3] = target: T1, GLP-1 receptor; remark: listed apart in the source
Target sequence in this assay (P43220 24-463 limits assumed): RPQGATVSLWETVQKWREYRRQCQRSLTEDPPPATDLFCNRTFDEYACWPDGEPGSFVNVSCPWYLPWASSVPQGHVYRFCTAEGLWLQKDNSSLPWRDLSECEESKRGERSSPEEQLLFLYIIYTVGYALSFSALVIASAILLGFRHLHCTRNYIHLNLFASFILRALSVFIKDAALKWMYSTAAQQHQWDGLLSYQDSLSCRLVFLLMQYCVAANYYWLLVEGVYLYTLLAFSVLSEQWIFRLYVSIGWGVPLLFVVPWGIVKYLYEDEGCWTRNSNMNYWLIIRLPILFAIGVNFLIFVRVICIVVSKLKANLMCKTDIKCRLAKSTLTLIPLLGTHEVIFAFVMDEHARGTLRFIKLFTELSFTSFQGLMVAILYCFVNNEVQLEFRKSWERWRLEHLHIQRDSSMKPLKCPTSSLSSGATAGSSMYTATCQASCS

glucagon receptor [4] = target: T2, glucagon receptor; remark: listed apart in the source
GLP-1 receptor [5] = target: T1, GLP-1 receptor; remark: listed apart in the source
glucagon receptor [6] = target: T2, glucagon receptor; remark: listed apart in the source

B1: [E9, E16K20(lactam), D28]G(4~29) (peptide)
peptide: GTFTSEYSKYLDERRAKDFVQWLMDT-NH2
modifications: lactam 13-17; N-terminus assumed
SMILES: CSCC[C@H](NC(=O)[C@H](CC(C)C)NC(=O)[C@H](Cc1c[nH]c2ccccc12)NC(=O)[C@H](CCC(N)=O)NC(=O)[C@@H](NC(=O)[C@H](Cc1ccccc1)NC(=O)[C@H](CC(=O)O)NC(=O)[C@@H]1CCCCNC(=O)CC[C@H](NC(=O)[C@H](CC(=O)O)NC(=O)[C@H](CC(C)C)NC(=O)[C@H](Cc2ccc(O)cc2)NC(=O)[C@H](CCCCN)NC(=O)[C@H](CO)NC(=O)[C@H](Cc2ccc(O)cc2)NC(=O)[C@H](CCC(=O)O)NC(=O)[C@H](CO)NC(=O)[C@@H](NC(=O)[C@H](Cc2ccccc2)NC(=O)[C@@H](NC(=O)CN)[C@@H](C)O)[C@@H](C)O)C(=O)N[C@@H](CCCNC(=N)N)C(=O)N[C@@H](CCCNC(=N)N)C(=O)N[C@@H](C)C(=O)N1)C(C)C)C(=O)N[C@@H](CC(=O)O)C(=O)N[C@H](C(N)=O)[C@@H](C)O
GLP-1 receptor [1]
  GLP-1 EC50: 151 nM
Glucagon receptor [2]
  Glucagon IC50: 10 to 30 nM

## FTSDYSKYLDERRAQDFVQWLMNTGPSSGAPPPS (lactam 7-11; not fully specified) [D9, K12E16(Lactam) Cex glucagon(6-39) (Table 13, peptide 4)]
GLP-1 receptor [3]
  GLP-1 EC50: 119 nM
Glucagon receptor [4]
  Glu IC50: 828 nM
GLP-1 receptor [5]
  GLP-1 EC50 (column without a head in this part of Table 15): 18 nM

## FTSEYSKYLDERRAQDFVQWLMNTGPSSGAPPPS (lactam 7-11) [E9, K12E16(lactam) Cex glucagon(6-39) (Table 13, peptide 2)]
GLP-1 receptor [3]
  GLP-1 EC50: 63 nM
Glucagon receptor [4]
  Glu IC50: 2010 nM

## FTSEYSKYLDERRAQDFVQWLMNTGPSSGAPPPS [E9, K12, E16 Cex glucagon(6-39) (Table 13, peptide 1)]
Glucagon receptor [4]
  Glu IC50: 762 nM

## FTSEYSKYLDERRAKDFVQWLMNTGPSSGAPPPS (lactam 11-15) [E9, E16K20(lactam) Cex glucagon(6-39) (Table 13, peptide 3)]
GLP-1 receptor [3]
  GLP-1 EC50: 36 nM
Glucagon receptor [4]
  Glu IC50: 42 nM

B2: [PLA6, D9, E16, K20E24(Lactam), D28]G(6-29) (peptide)
peptide: [PhLac]TSDYSKYLDERRAKDFVEWLMDT-NH2
modifications: lactam 15-19; N-terminus assumed
SMILES: CSCC[C@H](NC(=O)[C@H](CC(C)C)NC(=O)[C@H](Cc1c[nH]c2ccccc12)NC(=O)[C@@H]1CCC(=O)NCCCC[C@H](NC(=O)[C@H](C)NC(=O)[C@H](CCCNC(=N)N)NC(=O)[C@H](CCCNC(=N)N)NC(=O)[C@H](CCC(=O)O)NC(=O)[C@H](CC(=O)O)NC(=O)[C@H](CC(C)C)NC(=O)[C@H](Cc2ccc(O)cc2)NC(=O)[C@H](CCCCN)NC(=O)[C@H](CO)NC(=O)[C@H](Cc2ccc(O)cc2)NC(=O)[C@H](CC(=O)O)NC(=O)[C@H](CO)NC(=O)[C@@H](NC(=O)[C@@H](O)Cc2ccccc2)[C@@H](C)O)C(=O)N[C@@H](CC(=O)O)C(=O)N[C@@H](Cc2ccccc2)C(=O)N[C@@H](C(C)C)C(=O)N1)C(=O)N[C@@H](CC(=O)O)C(=O)N[C@H](C(N)=O)[C@@H](C)O
GLP-1 receptor [1]
  GLP-1 EC50: 239 nM
Glucagon receptor [2]
  Glucagon IC50: 74 nM

## FTSDYSKYLDSRRAQDFVQWLMDT (first residue is phenyl lactic acid (PLA)) [PLA 6, D9, D28 glucagon D9(6-29) analog (Table 15, peptide 7)]
GLP-1 receptor [5]
  GLP-1 EC50: ~700 nM

## [PhLac]TSDYSKYLDERRAKDFVQWLMDT-NH2 (lactam 11-15) [[PLA6, D9, E16K20(lactam), D28]G(6-29)]
Glucagon receptor [2]
  Glucagon IC50: 10 to 30 nM
GLP-1 receptor [5]
  GLP-1 EC50: 4 nM
Glucagon receptor [6]
  Glucagon IC50: 6 nM

B3: [PLA6, D9, K12E16(Lactam), D28]G(6-29) (peptide)
peptide: [PhLac]TSDYSKYLDERRAQDFVQWLMDT-NH2
modifications: lactam 7-11; N-terminus assumed
SMILES: CSCC[C@H](NC(=O)[C@H](CC(C)C)NC(=O)[C@H](Cc1c[nH]c2ccccc12)NC(=O)[C@H](CCC(N)=O)NC(=O)[C@@H](NC(=O)[C@H](Cc1ccccc1)NC(=O)[C@H](CC(=O)O)NC(=O)[C@H](CCC(N)=O)NC(=O)[C@H](C)NC(=O)[C@H](CCCNC(=N)N)NC(=O)[C@H](CCCNC(=N)N)NC(=O)[C@@H]1CCC(=O)NCCCC[C@H](NC(=O)[C@H](CO)NC(=O)[C@H](Cc2ccc(O)cc2)NC(=O)[C@H](CC(=O)O)NC(=O)[C@H](CO)NC(=O)[C@@H](NC(=O)[C@@H](O)Cc2ccccc2)[C@@H](C)O)C(=O)N[C@@H](Cc2ccc(O)cc2)C(=O)N[C@@H](CC(C)C)C(=O)N[C@@H](CC(=O)O)C(=O)N1)C(C)C)C(=O)N[C@@H](CC(=O)O)C(=O)N[C@H](C(N)=O)[C@@H](C)O
GLP-1 receptor [1]
  GLP-1 EC50: 177 nM
Glucagon receptor [2]
  Glucagon IC50: 63 nM
GLP-1 receptor [5]
  GLP-1 EC50: 21 nM
Glucagon receptor [6]
  Glucagon IC50: 13 nM

B4: [A2E3, E16K20(Lactam), D28]G(1~29) (peptide)
peptide: HAEGTFTSEYSKYLDERRAKDFVQWLMDT-NH2
modifications: lactam 16-20; N-terminus assumed
SMILES: CSCC[C@H](NC(=O)[C@H](CC(C)C)NC(=O)[C@H](Cc1c[nH]c2ccccc12)NC(=O)[C@H](CCC(N)=O)NC(=O)[C@@H](NC(=O)[C@H](Cc1ccccc1)NC(=O)[C@H](CC(=O)O)NC(=O)[C@@H]1CCCCNC(=O)CC[C@H](NC(=O)[C@H](CC(=O)O)NC(=O)[C@H](CC(C)C)NC(=O)[C@H](Cc2ccc(O)cc2)NC(=O)[C@H](CCCCN)NC(=O)[C@H](CO)NC(=O)[C@H](Cc2ccc(O)cc2)NC(=O)[C@H](CCC(=O)O)NC(=O)[C@H](CO)NC(=O)[C@@H](NC(=O)[C@H](Cc2ccccc2)NC(=O)[C@@H](NC(=O)CNC(=O)[C@H](CCC(=O)O)NC(=O)[C@H](C)NC(=O)[C@@H](N)Cc2c[nH]cn2)[C@@H](C)O)[C@@H](C)O)C(=O)N[C@@H](CCCNC(=N)N)C(=O)N[C@@H](CCCNC(=N)N)C(=O)N[C@@H](C)C(=O)N1)C(C)C)C(=O)N[C@@H](CC(=O)O)C(=O)N[C@H](C(N)=O)[C@@H](C)O
GLP-1 receptor [1]
  GLP-1 EC50: 0.2 nM
Glucagon receptor [2]
  Glucagon IC50 (PA = partial antagonist): 130 nM

## AEGTFTSEYSKYLDERRAKDFVQWLMDT-NH2 (lactam 15-19) [[A2E3, E16K20(Lactam), D28]G(2~29)]
Glucagon receptor [2]
  Glucagon IC50: 63 nM

## [PhLac]TSEYSKYLDERRAQDFVQWLMNTGPSSGAPPPS (lactam 7-11; not fully specified) [[PLA6, E9, K12E16(Lactam)] Cex glucagon(6-39) (Table 13, peptide 5)]
GLP-1 receptor [3]
  GLP-1 EC50: 6 nM
Glucagon receptor [4]
  Glu IC50: 72 nM

B5: [PLA6, D9, E16, E24K28(lactam)]G(6~29) (peptide)
peptide: [PhLac]TSDYSKYLDERRAQDFVEWLMKT-NH2
modifications: lactam 19-23; N-terminus assumed
SMILES: CSCC[C@@H]1NC(=O)[C@H](CC(C)C)NC(=O)[C@H](Cc2c[nH]c3ccccc23)NC(=O)[C@@H](NC(=O)[C@@H](NC(=O)[C@H](Cc2ccccc2)NC(=O)[C@H](CC(=O)O)NC(=O)[C@H](CCC(N)=O)NC(=O)[C@H](C)NC(=O)[C@H](CCCNC(=N)N)NC(=O)[C@H](CCCNC(=N)N)NC(=O)[C@H](CCC(=O)O)NC(=O)[C@H](CC(=O)O)NC(=O)[C@H](CC(C)C)NC(=O)[C@H](Cc2ccc(O)cc2)NC(=O)[C@H](CCCCN)NC(=O)[C@H](CO)NC(=O)[C@H](Cc2ccc(O)cc2)NC(=O)[C@H](CC(=O)O)NC(=O)[C@H](CO)NC(=O)[C@@H](NC(=O)[C@@H](O)Cc2ccccc2)[C@@H](C)O)C(C)C)CCC(=O)NCCCC[C@@H](C(=O)N[C@H](C(N)=O)[C@@H](C)O)NC1=O
GLP-1 receptor [1]
  GLP-1 EC50: 289 nM
Glucagon receptor [2]
  Glucagon IC50: 22 nM

## HSQGTFTSDYARYLDARRAREFIKWLVRGRG [ANK2 (Bayer peptide)]
GLP-1 receptor [1]
  GLP-1 EC50: 0.28 nM
